Target: Serum Resistance-Associated protein with C-terminal S tag
Assay: pull-down (sup/bound fractions, western blot with α-S tag), quantified
Details: read off a plot

Row | Substance | percent of parent (parent: est. 100) [% binding] | response (parent: est. 9) [% binding]
1 | Apolipoprotein L-I, wild type, with C-terminal V5-His6 tag (from UniProt O14791-1) N386T; N387K; N388I; Y389Q | 5.5 | 
2 | apoL1 truncated mutant NNNY (9 C-terminal amino acids removed, human last four residues NNNY), C-terminal V5-His6 tag (from UniProt O14791-1) N386T; N387K; N388I; Y389Q |  | 9.5
